Article PMC3164694

Target: gelatin layer (gelatin coated glass coverslips)
Experiment: not stated; unpublished data (Collier and Goldberg); affinity for gelatin

- fold higher affinity of the dimer for gelatin: 10 fold
Substance: MMP-9 pro-enzyme homo-dimer (complex)
